Reference: paper PMC4599343 (Archives of biochemistry and biophysics, 2015)
Blank lines part the entries; values can stand above or below the molecule they belong to.

Assays:
CYP2B6 [1] = target: T1, CYP2B6 (Homo sapiens, UniProt P20813, K262R/Y226H); test: biochemical
T1 sequence (P20813 29-491 Y226H/K262R): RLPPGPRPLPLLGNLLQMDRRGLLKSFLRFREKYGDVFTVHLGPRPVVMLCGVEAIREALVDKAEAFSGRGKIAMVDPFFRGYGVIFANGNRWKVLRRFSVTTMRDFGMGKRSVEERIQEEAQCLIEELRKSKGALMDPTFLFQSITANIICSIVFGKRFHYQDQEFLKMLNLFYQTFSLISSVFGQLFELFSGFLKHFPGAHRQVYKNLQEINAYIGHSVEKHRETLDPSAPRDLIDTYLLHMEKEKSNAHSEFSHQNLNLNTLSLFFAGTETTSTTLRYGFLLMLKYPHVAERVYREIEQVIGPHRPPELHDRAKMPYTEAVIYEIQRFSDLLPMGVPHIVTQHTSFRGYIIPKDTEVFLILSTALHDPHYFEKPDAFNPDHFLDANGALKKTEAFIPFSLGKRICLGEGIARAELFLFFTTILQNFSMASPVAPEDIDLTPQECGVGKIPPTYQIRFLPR

CYP2B6 [2] = target: T2, CYP2B6 (Homo sapiens, UniProt P20813, Y226H/K262R); format: biochemical; conditions: reconstituted purified enzyme
T2 sequence (P20813 29-491 Y226H/K262R): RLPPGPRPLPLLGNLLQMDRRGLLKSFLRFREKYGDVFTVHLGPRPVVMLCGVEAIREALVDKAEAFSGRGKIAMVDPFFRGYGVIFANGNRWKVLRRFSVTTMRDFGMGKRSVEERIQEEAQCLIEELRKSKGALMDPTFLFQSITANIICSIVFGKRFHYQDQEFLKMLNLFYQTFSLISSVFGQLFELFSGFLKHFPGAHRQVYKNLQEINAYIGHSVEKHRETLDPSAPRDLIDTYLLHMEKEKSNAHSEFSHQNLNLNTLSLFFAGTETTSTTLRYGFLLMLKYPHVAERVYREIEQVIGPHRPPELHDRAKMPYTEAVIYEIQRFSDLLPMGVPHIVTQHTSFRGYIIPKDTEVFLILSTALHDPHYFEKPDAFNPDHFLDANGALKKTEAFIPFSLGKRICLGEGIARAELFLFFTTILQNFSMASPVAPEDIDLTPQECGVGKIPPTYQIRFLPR

[3] = substrate: CCOc1ccc2c(C(F)(F)F)cc(=O)oc2c1; test: steady-state O-deethylation kinetics, reconstituted purified enzyme; format: biochemical, Oryctolagus cuniculus; conditions: heme
[4] = substrate: O=c1ccc2nc3ccc(OCc4ccccc4)cc3oc-2c1; test: steady-state O-debenzylation kinetics, reconstituted purified enzyme; format: biochemical, Oryctolagus cuniculus; conditions: heme

IC50 (CYP2B6 [1]): 739 ± 42.5 µM
Molecule: OC[C@H]1O[C@H](O[C@H]2[C@H](O)[C@@H](O)[C@H](OCCCCCC3CCCCC3)O[C@@H]2CO)[C@H](O)[C@@H](O)[C@@H]1O [CYMAL-5, 5-cyclohexyl-1-pentyl-β-D-maltoside]

Km (CYP2B6 [2]): 6.2 ± 0.6 µM
Molecule: CCOc1ccc2c(C(F)(F)F)cc(=O)oc2c1 [7-EFC, 7-ethoxy-4-(trifluoromethyl)coumarin]

B1: CYP2B4 (Oryctolagus cuniculus; H226Y) (protein)
chain: GRLPPGPSPLPVLGNLLQMDRKGLLRSFLRLREKYGDVFTVYLGSRPVVVLCGTDAIREALVDQAEAFSGRGKIAVVDPIFQGYGVIFANGERWRALRRFSLATMRDFGMGKRSVEERIQEEARCLVEELRKSKGALLDNTLLFHSITSNIICSIVFGKRFDYKDPVFLRLLDLFFQSFSLISSFSSQVFELFPGFLKYFPGTHRQIYRNLQEINTFIGQSVEKHRATLDPSNPRDFIDVYLLRMEKDKSDPSSEFHHQNLILTVLSLFFAGTETTSTTLRYGFLLMLKYPHVTERVQKEIEQVIGSHRPPALDDRAKMPYTDAVIHEIQRLGDLIPFGVPHTVTKDTQFRGYVIPKNTEVFPVLSSALHDPRYFETPNTFNPGHFLDANGALKRNEGFMPFSLGKRICLGEGIARTELFLFFTTILQNFSIASPVPPEDIDLTPRESGVGNVPPSYQIRFLAR
Km [3]: 28.4 ± 7.6 µM
kcat [3]: 0.123 ± 0.0217 s⁻¹
kcat/Km [3]: 4330 M⁻¹ s⁻¹
Km [4]: 1.03 ± 0.22 µM
kcat [4]: 0.03267 ± 0.000167 s⁻¹
kcat/Km [4]: 31700 M⁻¹ s⁻¹
